From patent US20250327097A1, “ORGANISMS PRODUCING LESS CROTONIC ACID” (Global Bioenergies, priority 2021, published 2025)
Residue numbers refer to the chain shown, from its start. Names may count otherwise.

B1: I283T-N285P-N287T-Q290E-S322T-N388M-K394R-C430A-L432F-L434W-S436N-i448aS-dG462 (protein)
chain: MFLKSLREQINLLKRQGDLRIINRPVDSYLEAAAIIRRSTETKAPVPLMTNIKGYPGCSIVGGLAALSSNPEYPLSRVAMSLGLSTTASAQSIVQYLIDGLKKTPYLPVEIDSNSAPCKQNILRGEDASLAHFPIPQVHQHDGNRYVNTWGVFIVESPDGQWCNWSIQRVQYLNDRQMIALVFPSQHISDIWEEWVKIGKPMPYALVQGCEPIVPYIAGLPLLERNVNEAEYIGALYGKGIEVVKCETHDLRVPASSEVVIEGYFAITREGVEGPFGEFAGYTPPETSLEPILSITAISWQDDPIWPVVAEGKPVDEYHTCTGIGDAAAIQNVLLTANLPVSFVWVPLYSACHLMIVSINRHWRQTHPDLTSEQLTKKVGDVIHQTRMSIKLPRIVVLDDDVDPADTESLLWALATRIHPERKRYFYESAIFPWLNCYSEEERHNRKGKRVIIDALLPENHGAISSFDYAYPDDIKQRVLMHWETDFSHD
B2: I283T-N285P-N287T-Q290E-S322T-N388M-K394R-C430A-i431aG-L432F-L434W-S436N-dG462 (protein)
chain: B1 chain
B3: I283T-N285P-N287T-Q290E-S322T-N388M-K394R-C430A-i431aL-L432F-L434W-S436N-dG462 (protein)
chain: B1 chain
B4: I283T-N285P-N287T-Q290E-S322T-N388M-K394R-C430A-i431aN-L432F-L434W-S436N-dG462 (protein)
chain: B1 chain
B5: I283T-N285P-N287T-Q290E-S322T-N388M-K394R-C430A-L432F-L434W-S436N-i449aS-dG462 (protein)
chain: B1 chain
B6: L223Y-I283T-N285P-N287T-Q290E-S322T-N388M-K394R-E421F-C430A-L432F-L434W-S436N-dG462 (protein)
chain: B1 chain with L223Y, E421F
B7: I283T-N285P-N287T-Q290E-S322T-N388M-K394R-E421F-C430A-i430aG-L432F-L434W-S436N-dG462 (protein)
chain: B1 chain with E421F
B8: I283T-N285P-N287T-Q290E-S322T-N388M-K394R-E421F-C430A-i430aL-L432F-L434W-S436N-dG462 (protein)
chain: B1 chain with E421F
B9: I283T-N285P-N287T-Q290E-S322T-N388M-K394R-E421F-C430A-i430aN-L432F-L434W-S436N-dG462 (protein)
chain: B1 chain with E421F
B10: I283T-N285P-N287T-Q290E-S322T-N388M-K394R-E421F-C430A-L432F-L434W-S436N-i448aS-dG462 (protein)
chain: B1 chain with E421F
B11: L223Y-I283T-N285P-N287T-Q290E-S322T-N388M-K394R-E421F-K423G-C430A-L432F-L434W-S436N-dG462 (protein)
chain: B1 chain with L223Y, E421F, K423G

System: 3-methylcrotonic acid
Assay type: biochemical, Yersinia frederiksenii
Set-up: key: “+” representing a low increase in activity; “++++” representing a high increase in activity

Molecule | Activity relative to WT
B1 | ++++
B2 | ++++
B3 | ++++
B4 | ++++
B5 | ++++
B6 | ++++
B7 | ++++
B8 | ++++
B9 | ++++
B10 | ++++
B11 | ++++
